Test results published in the Immune Epitope Database (IEDB).

Columns and labels:
[1] = target: HLA-B*53:01; test: IEDB peptide-MHC binding, purified MHC/competitive/radioactivity; filed as Kd, often an IC50 or EC50 that approximates it; ≥ and ≤ were set here for values at or beyond the usual limits of such assays
[2] = target: HLA-B*07:02; test: as above
[3] = target: HLA-B*54:01; test: as above
[4] = target: HLA-B*51:01; test: as above
[5] = target: HLA-B*35:01; test: as above
[6] = target: HLA-B*15:01; test: as above
[7] = target: HLA-A*68:02; test: as above
[8] = target: HLA-A*02:06; test: as above
[9] = target: HLA-A*02:01; test: as above
[10] = target: HLA-A*02:02; test: as above
[11] = target: HLA-A*02:03; test: as above
[12] = target: HLA-A*24:03; test: IEDB peptide-MHC binding, purified MHC/direct/fluorescence; filed as Kd, often an IC50 or EC50 that approximates it; ≥ and ≤ were set here for values at or beyond the usual limits of such assays; conditions: source organism: Amur virus
[13] = target: HLA-A*30:02; test: IEDB peptide-MHC binding, purified MHC/competitive/radioactivity; filed as Kd, often an IC50 or EC50 that approximates it; ≥ and ≤ were set here for values at or beyond the usual limits of such assays; conditions: source organism: Dengue virus 3 Martinique/1243/1999
[14] = target: HLA-A*68:01; test: as above; conditions: source organism: Dengue virus 3 Martinique/1243/1999
[15] = target: HLA-A*01:01; test: as above
[16] = target: HLA-A*26:01; test: as above
[17] = target: HLA-A*11:01; test: IEDB peptide-MHC binding, purified MHC/competitive/fluorescence; ≥ and ≤ were set here for values at or beyond the usual limits of such assays
[18] = target: HLA-A*02:01; test: as above; conditions: source organism: Zaire ebolavirus
[19] = target: HLA-A*24:02; test: as above; conditions: source organism: Zaire ebolavirus
[20] = source organism: SARS coronavirus Tor2
[21] = source organism: Vaccinia virus WR
[22] = source organism: Dengue virus 2 Jamaica/1409/1983
[23] = source organism: Trypanosoma cruzi
[24] = source organism: Mammarenavirus juninense
[25] = source organism: Dengue virus 3 Martinique/1243/1999
[26] = source organism: Dengue virus 1 Brazil/97-11/1997
[27] = source organism: Triticum aestivum
[28] = source organism: Hepacivirus hominis

Sequence: LPFHRWHTM
- Kd [1, 20]: 100 nM
- Kd [2, 20]: 8.4 nM
- Kd [3, 20]: 274 nM
- Kd [4, 20]: 11.1 nM
- Kd [5, 20]: 7.16 nM

Sequence: LPIDKCSRII
- Kd [1, 20]: 603 nM
- Kd [2, 20]: 1400 nM
- Kd [3, 20]: 1140 nM
- Kd [4, 20]: 681 nM
- Kd [5, 20]: 2550 nM

Sequence: LPTLFGRGV
- Kd [1, 21]: 956 nM
- Kd [2, 21]: 8.32 nM
- Kd [3, 21]: 1.99 nM
- Kd [4, 21]: 6.04 nM
- Kd [5, 21]: 1280 nM

Sequence: LSASVFYRG
- Kd [6, 21]: 295 nM

Sequence: LVAFLRFLTI
- Kd [7, 22]: 103 nM

Sequence: LVGLWGAAAL
- Kd [8, 23]: 397 nM
- Kd [9, 23]: 689 nM
- Kd [7, 23]: 5250 nM
- Kd [10, 23]: 89.7 nM
- Kd [11, 23]: 95.9 nM

Sequence: LVRHYFRYI
- Kd [6, 21]: 158 nM

Sequence: MAVELFQTI
- Kd [1, 24]: 6.99 nM
- Kd [2, 24]: 7280 nM
- Kd [3, 24]: 188 nM
- Kd [4, 24]: 8.54 nM
- Kd [5, 24]: 61 nM

Sequence: MHTDLELDF
- Kd [12]: 4850 nM

Sequence: MPYVFTLLF
- Kd [1, 20]: 0.124 nM
- Kd [2, 20]: 109 nM
- Kd [3, 20]: 30.6 nM
- Kd [4, 20]: 4.07 nM
- Kd [5, 20]: 0.59 nM

Sequence: MTIDLDPVIY
- Kd [13]: ≥ 25400 nM
- Kd [6, 25]: 5.32 nM
- Kd [14]: 11.9 nM
- Kd [15, 25]: 2990 nM
- Kd [5, 25]: 24.8 nM
- Kd [16, 25]: 5.59 nM

Sequence: MTTEDMLSV
- Kd [8, 26]: 10.6 nM
- Kd [7, 26]: 10.6 nM
- Kd [15, 26]: 5060 nM
- Kd [16, 26]: 1260 nM

Sequence: NAICSAVPV
- Kd [7, 26]: 3.19 nM

Sequence: NLPIYSEEIV
- Kd ([7]; source organism: Homo sapiens): 982 nM

Sequence: NTPEGIIPAL
- Kd [7, 26]: 20.5 nM

Sequence: NVFKAMETF
- Kd [6, 21]: 22.8 nM

Sequence: QIAMTDTTPF
- Kd [6, 26]: 7.04 nM

Sequence: QMANGIALGL
- Kd [6, 25]: 191 nM

Sequence: QPFPQPQL
- Kd [1, 27]: ≥ 87700 nM
- Kd [2, 27]: 583 nM
- Kd [3, 27]: ≥ 20300 nM
- Kd [4, 27]: 2160 nM
- Kd [5, 27]: ≥ 87800 nM

Sequence: QPFPQPQLPY
- Kd [1, 27]: 256 nM
- Kd [2, 27]: 552 nM
- Kd [3, 27]: ≥ 41000 nM
- Kd [4, 27]: 1370 nM
- Kd [5, 27]: 9.37 nM

Sequence: RVIEVLQRA
- Kd ([9]; source organism: HIV-1 M:B_MN): 25 nM

Sequence: SGTEKEFLR
- IC50 ([17]; source organism: Vaccinia virus): ≥ 412000 nM

Sequence: TQVPFCSHHF
- Kd [6, 22]: 2.37 nM

Sequence: TSHNILVEV
- Kd [7, 26]: 7.42 nM

Sequence: VLQQSTYQL
- Kd [9, 27]: 58 nM

Sequence: VLSDFRTWL
- Kd [8, 28]: 305 nM
- Kd [9, 28]: 1.78 nM
- Kd [7, 28]: 5280 nM
- Kd [10, 28]: 1.72 nM
- Kd [11, 28]: 7.18 nM

Sequence: VPAAIMMIL
- Kd [1, 21]: 19300 nM
- Kd [2, 21]: ≥ 76900 nM
- Kd [3, 21]: ≥ 78100 nM
- Kd [4, 21]: ≥ 77500 nM
- Kd [5, 21]: 18700 nM

Sequence: VPLPCQLMYA
- Kd [1, 21]: 460 nM
- Kd [2, 21]: 7430 nM
- Kd [3, 21]: 0.136 nM
- Kd [4, 21]: 621 nM
- Kd [5, 21]: 2330 nM

Sequence: VPYNMRVIHF
- Kd [1, 20]: 688 nM
- Kd [2, 20]: 149 nM
- Kd [3, 20]: 505 nM
- Kd [4, 20]: 5590 nM
- Kd [5, 20]: 1440 nM

Sequence: YKLDISEAT
- IC50 ([17]; source organism: Zaire ebolavirus): ≥ 139000 nM
- IC50 [18]: ≥ 158000 nM
- IC50 [19]: 29800 nM
